Data reported in article PMC8303780, “Mutational Analysis of Redβ Single Strand Annealing Protein: Roles of the 14 Lysine Residues in DNA Binding and Recombination In Vivo”.

What was measured:
Test in all cases: EMSA; strands added sequentially; Anisotropy: 50 mM Tris-HCl pH 7.5, 1 mM DTT, 0.1 mg/mL BSA, 10 nM FAM48, 23 °C (Kd per monomer); gel assay: 10 µM Redβ, 50 µM nt of each oligo, PBS, 37 °C, 1% agarose at 22 °C
Details in all cases: protein: recombinant; tags: 6xHis removed by thrombin; residual N-terminal GSH; label: 5'-Cy3 and 5'-Cy5; complementary 50-mers; annealed by protein
Redβ K214A = molecular target: T1, Redβ K214A (bacteriophage λ, UniProt P03698 1-261, K214A)
T1 sequence: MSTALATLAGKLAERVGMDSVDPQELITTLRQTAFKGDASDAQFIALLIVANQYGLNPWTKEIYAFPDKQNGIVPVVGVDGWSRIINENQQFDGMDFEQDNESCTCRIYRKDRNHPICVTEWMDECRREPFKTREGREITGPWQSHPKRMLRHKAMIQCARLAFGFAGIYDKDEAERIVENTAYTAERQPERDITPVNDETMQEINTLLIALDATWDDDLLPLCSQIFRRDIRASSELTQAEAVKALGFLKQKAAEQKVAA

Redβ K61A = molecular target: T2, Redβ K61A (bacteriophage λ, UniProt P03698 1-261, K61A)
T2 sequence: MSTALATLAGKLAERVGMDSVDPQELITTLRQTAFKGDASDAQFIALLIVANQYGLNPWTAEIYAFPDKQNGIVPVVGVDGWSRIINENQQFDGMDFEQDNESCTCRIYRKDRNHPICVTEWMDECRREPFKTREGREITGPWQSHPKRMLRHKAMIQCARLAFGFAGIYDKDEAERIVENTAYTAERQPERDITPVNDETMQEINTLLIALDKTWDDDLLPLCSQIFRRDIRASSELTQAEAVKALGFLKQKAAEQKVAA

Redβ K251A = molecular target: T3, Redβ K251A (bacteriophage λ, UniProt P03698 1-261, K251A)
T3 sequence: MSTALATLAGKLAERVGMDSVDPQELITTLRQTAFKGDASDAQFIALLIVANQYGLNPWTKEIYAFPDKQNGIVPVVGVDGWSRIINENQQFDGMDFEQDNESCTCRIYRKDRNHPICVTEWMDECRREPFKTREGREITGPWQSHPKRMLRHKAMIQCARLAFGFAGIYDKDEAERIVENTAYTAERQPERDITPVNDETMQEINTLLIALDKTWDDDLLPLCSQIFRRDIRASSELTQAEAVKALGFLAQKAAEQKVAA

Redβ K258A = molecular target: T4, Redβ K258A (bacteriophage λ, UniProt P03698 1-261, K258A)
T4 sequence: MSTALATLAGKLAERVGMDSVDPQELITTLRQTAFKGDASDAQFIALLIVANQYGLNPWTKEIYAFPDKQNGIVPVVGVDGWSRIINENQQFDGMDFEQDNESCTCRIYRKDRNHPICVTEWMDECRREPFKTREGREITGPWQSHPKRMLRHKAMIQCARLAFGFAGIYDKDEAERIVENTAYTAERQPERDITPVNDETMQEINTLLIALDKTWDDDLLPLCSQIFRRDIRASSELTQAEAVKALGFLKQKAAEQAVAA

Redβ WT = molecular target: T5, Redβ WT (bacteriophage λ, UniProt P03698 1-261)
T5 sequence: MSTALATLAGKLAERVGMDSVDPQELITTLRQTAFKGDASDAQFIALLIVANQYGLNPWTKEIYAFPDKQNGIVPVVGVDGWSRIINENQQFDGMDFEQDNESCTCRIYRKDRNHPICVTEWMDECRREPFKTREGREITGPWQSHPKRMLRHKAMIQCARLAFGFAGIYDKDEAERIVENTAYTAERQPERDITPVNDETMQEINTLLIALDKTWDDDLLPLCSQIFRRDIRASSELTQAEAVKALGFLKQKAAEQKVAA

Redβ K111A = molecular target: T6, Redβ K111A (bacteriophage λ, UniProt P03698 1-261, K111A)
T6 sequence: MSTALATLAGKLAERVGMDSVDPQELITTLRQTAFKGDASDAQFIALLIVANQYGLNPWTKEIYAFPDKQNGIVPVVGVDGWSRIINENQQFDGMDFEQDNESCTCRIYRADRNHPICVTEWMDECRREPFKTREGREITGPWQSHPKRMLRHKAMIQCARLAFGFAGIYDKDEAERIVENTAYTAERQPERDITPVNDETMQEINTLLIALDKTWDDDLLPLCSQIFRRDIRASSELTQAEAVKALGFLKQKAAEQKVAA

Measured: binding result

B1: annealed duplex of Cy3 and Cy5 50-mers, strands added sequentially (dsDNA)
DNA 1: GCGGATGGCTTAGAGCAGAATCGCCCTGCATAGCTCGATTTTTGCGGATG
DNA 2: CCATCCGCAAAAATCGAGCTATGCAGGGCGATTCTGCTCTAAGCCATCCG
no binding: Redβ K61A | Redβ K111A
binds: all other assays above
